Reference: a protein production outcome set (Wang et al. 2014)

Test: label from the status in PepcDB records
For “MTPNYLDIAFLAVLGLFTLRGLFRGLVEEVAGLVGVIGGFWLANRHHADAAAYVGRVVEDPAWVGVLSYVVVFLGVLLVVSIVARIIRKLLVLSFAGWLDHLAGGAVGVAKGVIICSILLAVLMHFLPDASFVRDSRVIPHLAKVTSFIKGYLPQQIVN”, the protein production was “failed”. In the case of “MTPPEIDFFPDFIADPHRLFNHLKDSVLWDERMRARKTASFGAPYDYSQITYPAVPMPEALEQLCGPIEQLLGFRPNNCLLNCYPDGHSSMGFHSDANEQLVTGTGVVIVSLGHARAMVFRHKESGATFDYSLASGSLLHMSDELQKHWLHAIPKAPDAGERISLSFRQLKTGLEHHHHHH”, the protein production is reported as “not failed”. For “MTPPERVRRKCPQTNTREPIIQEPDTFEPEATRRDAGATESSRANRGWWDRNADDYQVEHGTFLGDDRFVWCPEGLDEVEAELLGPAEDLKGKDVLEIGAGAAQCSRWLAGQGARPVALDLSHRQLQHALRIGGDVPLVEADAGALPFADASFDLACSAYGALPFVADPVRVLREVHRVLRPGGRFVFSVTHPIRWAFPDEPGPEGLSVSASYFDRTPYVEQDEEGGAVYVEHHRTIGDRVRDVVAGGFRLLDVVEPEWPAWNTQEWGGWSPLRGNLIPGTAIFVCVRD”, the protein production was “failed”. For “MTPSPHDLLHCGMNSQDRDETNGDRQRLVRVALGQEDGDLLVRGAQVVQPVTREVYAADVLVAGGRVAAVGPDLPARARRTVQARGAYLAPGFIDGHIHIESSLLTPASFAAAVLPHGTTAVVAEPHEIVNVLGPAGLNWMLGAGRTSGLRVYASAPSCVPASEFEQGGARVDAAQVAEMLARPGVLGLAEMMNYPGVLGGDAGVWDILNAGRRSGKRLDGHAAGLGGRELLAYAAAGLHSDHEATTPEEARERLRAGLWLMVREGSAARNLAALLPVLRDLPRRALLVSDDVSVDELLELGHLDRLLRTCVAGGLHPADAVALVTSQPAEYWGLHDLGVIAPGYHADFVLLRDLQHFGVLETFVGGEEARPGGETPPLPGGGVDLGPGWDGATFDPPAHWPTLQMFPDQIVTGRAAPGSGDARLVVADRYGRGEWSSCWTLGSGLRGGTLGISILHDAHQVALLGGSDADLRAAGRALERLGGGIVLVVDGEVREQLPLPYAGLMTDHAPAEAAAALGRVTAAARLLGCMPAGRL”, the protein production was “failed”. For “MTPTQNVPEDRIQIGQLRSAYGLNGWLWVYSNTEPMSNMFDYLPWFIETKAGWQTVDVKRWKPHGKGLVVSLKNVSDRNAAESLIGSTIWVAKSQLPKTDVDEYYWSDLKGLTVLGLDEEEQEVNLGQIHELFETGANDVMVVRATADSVDAEERMIPWHKDVVQRVDLEAGRIYVNWGVDYLEHHHHHH”, the protein production was “not failed”. For “MTPYQGEPLSLNFQDVEVRAVLQVLADYAGVNLVASDAVQGSVTLRLQDVPWDQALDLVLRSKGLSRRQEGNVLLVAPAAEFAAQSADARVSQALDAHLQPLRRELLPIHHAKAADLAQLLLAGLEGDGIPPASLSVDERTNTLVVHLPADRLAEMRQLVAQLDVPVRQVAIEARIVEANVDYEKSLGVRWGGPLYGEKLRPGKELFVDLGLERAGSSIGLGLLRGDVLLDLELSAMEKSGNGEIISQPKVVTADKETARILKGTEVPYQETSQSGATSVSFREASLSLEVTPQITPDNKVIMTVRVTKDEPDYVNALNNVPPIRKNEVNAKVRVADGETIVIGGVYSTSQNNVVDKVPFFGDLPYVGRLFRRDALQEKKSELLVFLTPRIMSDQAIAVSRLEHHHHHH”, the protein production was “failed”. With “MTPYTEVELTLIQYVLVVVSGFIIGLILGLIGGGGSILAVPLLLYFVGLGNDSSSFGNYSNITHLVLGTSALAVGLNAYINSFIHWRKGNVKVFEGVVFTIPGVIGSILGAYFGYLTTGNLILIMFGIVMILIGLRMIKSKCKEGSNETKGSGDTGVVKSKDRINIRIIYTGFLVGLASGFLGIGGGFLIVPALLFSTSMSIISAIGTSLISVGTFGLSTALTYASYGEIDYILSLILLAGGVGGGYIGTLLASKSPRSTLRKVFGVVLIVVAIYIIYRNLLL” the protein production was “failed”. With “MTQAATILRTGRKFDQVLRGAREVFMSDGFEGANVDDIARAAGVSKATLYSYFPDKRLLFVEVAQTECQLMAERILSMIDEDRPVREVLTITATQLVAFLISDFAQQVFRICLAERERFPELARAFYAAGPENGQRQICEYLEKAVTKGELVIADIPMAAEQFSELCKTRLWTRAVFGIQTRFTQAEIDEVALAAVDTFLARYGA” the protein production was “failed”. With “MTQDNASGDQVSKQHKAFLRKLYLAHLMDDARHNLLSLGKLTGMPRRTLQDAIASFADIGIEVEFVQDGERHNAGYYRIRTWGPISSAWMDTHVDEVKSLLGVDDAVGQATAGNGA” the protein production was “not failed”. In the case of “MTQETALGAALKSAVQTMSKKKQTEMIADHIYGKYDVFKRFKPLALGIDQDLIAALPQYDAALIARVLANHCRRPRYLKALARGGKRFDLNNRFKGEVTPEEQAIAQNHPFVQQALQQQSAQAAAETLSVEAEAAESSAAE”, the protein production is reported as “not failed”. With “MTQHLTIAQTYLAAWNEEDNERRRHLVGQAWAENTRYVDPLMQGEGQQGIAAMIEAARQKFPGYRFVLAGTPDGHGNFTRFSWRLISPDGDDVAGGTDVVSLNTEGRIDNVVGFLDGAVS” the protein production was “not failed”. For “MTQIARISDTGTERRLQAERLIGAKALQEAQALRFNVFSGEFNAKLKGAELGLDMDDYDVHCSHIGVRDLNTGRLVATTRLLDHQAANSLGRFYSEEEFSLHGLVQLKGPILEIGRTCVDPAYRNGGTIAVLWGELAEVLNQGGYSYLMGCASIPMQDGGVQAQAIMQRLRERYLCTEHLRAEPKNPLPSLDIPSNVIAEMPPLLKAYMRLGAKICGEPCWDEDFQVADVFILLKRDELCPRYARHFKAAV”, the protein production was “failed”. For “MTQKVALIGFGGVAQGFIQILRERGEELPEHIQVVSITDWRRGAVHDPNGLDLDFIAKIIETDGTFEHYPERSGVIKGWNSFETIQQTNADTIVEVTFTDVLTGQPAIDHCKEALRLGKHVVTTNKGPIAVAYQELKELADANGVQLLYEGTVMSGTPALRLPEHTLIGNNIQEVKGILNGTTNYILTEMERGKTFEQALQDAQTLGYAEADPTSDVEGYDVLYKVVILANVMMGIPLKPSDVERVGISHLTPRDIKDAHSAGERWKLIGRVKKEGERTMATVRPERLPLTDPLANINGAINAITYECDISGPITLIGAGAGVKETGFALLIDLLHVNRLGE”, the protein production was “failed”. With “MTQLDTWLANTKPLIPVIVIDDLVHAIPMAKALVAGGVHLLEVTLRTEAGLAAISAIKKAVPEAIVGAGTVCTADDFQKAIDAGAQFIVSPGLTPELIEKAKQVKLDGQWQGVFLPGVATASEVMIAAQAGITQLKCFPASAIGGAKLLKAWSGPFPDIQFCPTGGISKDNYKEYLGLPNVICAGGSWLTESKLLIEGDWNEVTRRASEIVKLSDI” the protein production was “not failed”. For “MTQLELLLERIIDRVNVNLRHQKFDVGDYVRRQTPHLHYSKFYAFYGLSADDPVHFHFKNSSLAGSYLLGRVNVLHSALYKSDIRGDELKRKGQHFVCDGKMIPLHDDEVITIKDSFLNKTLVHSNSHDPESPEEFTIRNTVAMPYANIHGSLTEGSFIGSFATVDLSTIHNSVVRYFSYVQTGELVGKCVEPGQIWIKSGDELEFHYSFDKAILDKYISQEAGSCPTGVLMEFVEVRQEDFEEVFASGHMASGAGSASGASVSGYAVIKGDTVIGENVLVSQRAYLDNAWMGKGSNAQENCYIINSRLERNCVTAHGGKIINAHLGDMIFTGFNSFLQGSESSPLKIGDGCVVMPHTIIDLEEPLEIPAGHLVWGYIRNKADLAAHSISFEEFAKVDGEVTMGRMTFRGKGGPFLDSFKKRIKRILSENGAFFDGSEGTGHAQKGKNFTFNIIQPYQDGDPRGMYPTILIQPNNGS”, the protein production was “not failed”. For “MTQQTDLQSKTNIDPLAMNDSFLAAADALAVDPMFGIPANVREVIARRGNATRLVILGTKGFGAHLMNVRHERPCEVIAAVDDFRYHSGELYYGLPIISTDRFTELATHDRDLVALNTCRYDGPKRFFDQICRTHGIPHLNFEQAVRAFGLQGNVDYRVDDWGADIVRNIPAFQTLAQRLADDYSVQTLYAVLNFHLTCEPEYYHEVERPYSTLYFRSGLLRFSDSEKMVDCGASIGESLAGLIGVTKGKFERVWMIEPDRINLQTLQNVLRRYTDTNFASRITVHGCGAGENTIRVPFNHEGGHGGFVKPADADHEPADLIDVRPIDDIIDDAPTFIKMDIEGSELSALKGARRAISEHKPKLAISAYHRSTDLLDLTNYILSIRPDYQIGLRHHTPDRWDTCLYFY”, the protein production was “not failed”. In the case of “MTQRRAMLILHGKQSLNEDVRDAVADKRKQGWELDVRLTWEAGDAQRLVNEALAAGHRHIVAGGGDGTLRDIAEALALAATKASLTILPLGTANDFARAAGVPLDVSKALQLMDVAPRAVDLGEVGGKLFLNMATGGFGSQVTANTSEDLKKVLGGAAYLFTGLTRFSELHAAHGELTGPDFHWRGDLLALGIGNGRQAGGGHELCPTALADDGLLDISILPAPQEVVGTLRSLLEGGLGIDNMFIRARLPWVELKSAQGLDINLDGEPLSGEDLRFVARPGALQVHLPANSPVLGSTPLLNRPD”, the protein production is reported as “not failed”. In the case of “MTQSLFDFSAYFKFFIGLFALVNPVGIIPVFISMTSYQPAAVRNKTNLTANLSVAIILLTSLFLGDGILQIFGISIDSFRIAGGILVVTIAMSMISGKLGEDKQNKQEKSETAVRESIGVVPLALPLMAGPGAISSTIVWGTRYHSWVHLVGFSLAIAVFALCCWGIFRMAPWLVRLLGQTGINVITRIMGLLLMALGIEFIVTGIKALFPGLLS”, the protein production is reported as “failed”. In the case of “MTQSPDITAKSWAMVATLGFVWGGTFLINELALEGITPFWLAAGRVCFGALLSTLVWRAMGGRLFSAPLSGSERLSLVIIALLSSAVPFSLIAWGQQYVTAGFTGVSMASIALMVLPLAHFFVPGERMTWRRALGFAIGFAGVALLMGAQAFESSGAALELPGRLACLAATACYAVASILMRRLPAVDPMGLSTVLLLIGVVAVLPMAWIAEGPPPSTDLRTLGLIVFLGMVPTAAANLLRVTLIRSAGPVFMSLTNYQVPIWSVLLGAALLGEPLPPVLLWSLLLILGGVGLSQYGALRRLFTRQ”, the protein production is reported as “failed”. In the case of “MTQTQSLALYTVAILVGALTGGSLPLLGRVGRSDIGLSFSAGVMLGAAFFHMLPEAVEESGAGILPFVLVGFLLLFLLERFVLVHVCAEPGPNARLSQAAPLPAGIEAGHGHDHHHHGHAHVATGGALALEDDGTGCAVHTTLGLAAFLGMSAHTLVDGFALGAASGQAELGLLVFLAILAHKIPNSFSLSAILRAEGYSRGRALAMNAVFALMVPVGAGIYLVLRELVRVETFTAAALAASAGTFLHLSLSDILPDLHRRGGSKWVLSGALLAGLAVMWGLRALNHAH”, the protein production is reported as “failed”. With “MTQTVKLDILSDPICPWCYIGKTQLDKALAAIPDHPFVIEWHPFQLNPDMAPEGMDRREYLERKFGGKEGAVRAYAPVVEHAEKAGLAIDFEAMQRTPNTLDAHRLIHWAGVEGKQTEAVDALFAAYFTEGRDIGDAEVLADIADSIGMDAAVVLKLLKSDADRDDIAKRDSHSREMGVSSVPTFIVANQHAVPGAQPPELWEQVIREIMSQIETTSA” the protein production was “not failed”.
